Laboratory results: patent US20210324061A1 (ARGENX BVBA, published 2021)
Changes are numbered by the printed parent chain. In names and notes the source's numbering stands. Several values for one entry are separate records, joined by “and”; a condition that tells them apart may be missing. Equal values may be shown once.

B1: 39B6-ANK IgG4 S228P (antibody, V domains shown)
VH: QVQLVQPGAEVRKPGASVKVSCKASGYRFTSYYIDWVRQAPGQGLEWMGRIDPEDAGTKYAQKFQGRVTMTADTSTSTVYVELSSLRSEDTAVYYCARNKWETVVVGDLMYEYEYWGQGTLVTVSS
VL: DIQMTQSPSSLSASVGDRVTITCQASQSISSYLAWYQQKPGQAPKILIYGASRLKTGVPSRFSGSGSGTSFTLTISSLEPEDAATYYCQQYASVPVTFGQGTKVEIKR
notes: Variant of 39B6-A in IgG4 S228P format; Positions are Kabat-type
B2: LHG10.6 IgG1-N297Q (antibody, V domains shown)
VH: B1 VH with Q1E, V11L, K13N, P14S, A56G, M70F, V79A, K100E, L121Q
VL: DIQMTQSPSSLSASLGDRVTITCQASQSISSYLAWYQQKPGQAPNILIYGASRLKTGVPSRFSGSGSGTSFTLTISGLEAEDAGTYYCQQYASVPVTFGQGTKVELK
B3: Fab 17H5 (Fab of LHG-10.6) (Fab, V domains shown)
VH: B1 VH with Q1E, V11L, K13N, P14S, A56G, M70F, V79A, K100E, L121Q
VL: B2 VL
notes: Parental, non-germlined Fab
B4: LHG-10.6 monoclonal antibody (17H5 mAb), isotype not stated (antibody, V domains shown)
VH: B1 VH with Q1E, V11L, K13N, P14S, A56G, M70F, V79A, K100E, L121Q
VL: B2 VL
B5: 39B6 IgG1-N297Q (antibody, V domains shown)
VH: B1 VH with A56G, K100E
VL: B2 VL with L15V, N45K, G77S, A80P, G84A, L106I
notes: Effector-deficient format hIgG1 N297Q; The second row may be the IgG4 S228P form; Both rows are written here as printed
B6: 39B6-AVE IgG4 S228P (antibody, V domains shown)
VH: B1 VH with N99V, K100E
VL: B1 VL
notes: as for B1
B7: 39B6-AYE (ARGX-115), IgG4 S228P (antibody, V domains shown)
VH: B1 VH with N99Y, K100E
VL: B1 VL
B8: 39B6-ANR IgG4 S228P (antibody, V domains shown)
VH: B1 VH with K100R
VL: B1 VL
notes: as for B1

Assays:
[1] = molecular target: T1, human GARP-TGF-β1 complex (recombinant complex of human GARP and latent human TGF-β1) (human, UniProt Q14392 20-627; P01137 30-278; P01137 279-390); experiment: SPR Biacore T200, CM5 chip coated with GARP-TGF-β1 complex at 150 RU
T1 construct: also called huGARP-TGF-β1; hGARP-TGF-β1
Protocol: (§1) The affinity of all antibodies (including 39B6-A) for GARP-TGF-β1 was tested by BiacoreT200 using a CM5 chip coated with GARP-TGF-β1 complex at 150RU (Table 17) or coated with the antibodies at 200RU (Table 17)

[2] = molecular target: T1, human GARP-TGF-β1 complex (recombinant …); experiment: SPR Biacore 3000, chip ~4000 RU hGARP-TGF-β; slope vs -20°C reference (=100%); sample stored 28 d at 37°C
Protocol: (§2) From the intermediate concentration of all samples at 1 mg/ml described above, an extra 1/250 dilution was done for SPR analysis to yield a final concentration of 4 μg/ml. This 1/250 dilution took place for all conditions in two steps: a) 5 μl (1 mg/ml)+120 μl HBS-EP (SPR buffer) and b) an extra 10× dilution (15 μl+135 μl HBS-EP). For each antibody and each time point, a separate standard curve was prepared, starting from a −80° C. frozen sample. This was analyzed together with the stability samples to determine the slope of each curve after general fitting of the standards. These slopes were used to calculate the percent activity of the stability samples by setting the reference sample at 100%.
(§3) To determine the target binding activity in Biacore, a CM5 chip was coated with ˜4000 RU human GARP-TGF-β complex. Flow was set to 30 μl/min with a “kinject” injection mode and two regeneration injections (1 mM NaCl, 2.5 mM glycine pH 1.5) with a 5 min interval.
(§4) Open the curves in the BIAEVAL program and select value ‘2-1’ (1: blank, 2 hGARP-TGF-β1) [0263] Select one curve at the time for plot overlay [0264] Delete the regeneration part of the curve [0265] Select the baseline just before the injection and transform the Y-axis for ‘zero at median of selection’ [0266] Select ‘General Fit’, starting from 120 sec after injecting and ending at 155 sec [0267] Plot the standards in Excel and determine the slope of the curve for each antibody [0268] These values are converted to a percent activity by setting the reference (sample stored at −20° C.) at 100%

[3] = molecular target: T1, human GARP-TGF-β1 complex (recombinant …); experiment: SPR Biacore 3000, chip ~4000 RU hGARP-TGF-β; slope vs -20°C reference (=100%); sample stored 28 d at 5°C
Protocol: as §2, §3, §4

[4] = molecular target: T1, human GARP-TGF-β1 complex (recombinant …); experiment: SPR Biacore 3000, chip ~4000 RU hGARP-TGF-β; slope vs -20°C reference (=100%); sample stored 56 d at 37°C
Protocol: as §2, §3, §4

[5] = molecular target: T1, human GARP-TGF-β1 complex (recombinant …); experiment: SPR Biacore 3000, chip ~4000 RU hGARP-TGF-β; slope vs -20°C reference (=100%); sample stored 56 d at 5°C
Protocol: as §2, §3, §4

[6] = molecular target: T1, human GARP-TGF-β1 complex (recombinant …); experiment: SPR Biacore 3000, chip ~4000 RU hGARP-TGF-β; slope vs -20°C reference (=100%); sample 0 d, 37°C arm
Protocol: as §2, §3, §4

[7] = molecular target: T1, human GARP-TGF-β1 complex (recombinant …); experiment: SPR Biacore T200, CM5 chip coated with the antibody at 200 RU, complex in solution
Protocol: as §1

[8] = molecular target: T1, human GARP-TGF-β1 complex (recombinant …); experiment: SPR Biacore 3000, chip ~4000 RU hGARP-TGF-β; slope vs -20°C reference (=100%); sample 0 d, 5°C arm
Protocol: as §2, §3, §4

[9] = molecular target: T1, human GARP-TGF-β1 complex (recombinant …); experiment: SPR Biacore T200, CM5 chip coated with the antibody at 1000 RU, complex in solution
Protocol: (§5) Clone 39B6 was selected as the lead germlined clone based on its binding characteristics. This antibody was produced in two effector function deficient formats, hlgG1^N297Q and hlgG4^S228P, and stability tests were carried out. Prior to the stability testing, the affinity of the effector deficient 39B6 antibodies for GARP-TGF-β1 was tested by BiacoreT200 using a CM5 chip coated with GARP-TGF-β1 complex at 750RU (Table 14) or coated with the antibodies at 1000RU (Table 15).

[10] = molecular target: T1, human GARP-TGF-β1 complex (recombinant …); experiment: SPR Biacore T200, CM5 chip coated with GARP-TGF-β1 complex at 750 RU
Protocol: as §5

[11] = molecular target: T1, human GARP-TGF-β1 complex (recombinant …); experiment: SPR, Fab off-rate on human GARP-TGF-β1 complex
[12] = molecular target: T1, human GARP-TGF-β1 complex (recombinant …); experiment: SPR, mAb on human GARP-TGF-β1 complex
Excerpt: The five germlined clones reformatted to human IgG1 were produced by transient transfection in HEK 293E cells.

[13] = molecular target: T2, complex of recombinant GARP and recombinant LAP (human, UniProt Q14392 20-627; P01137 30-278); experiment: ELISA in two orientations: GARP coated and LAP captured; or ARGX-115 coated, GARP then LAP added, detected with anti-LAP-HRP
T2 construct: Formed on the ELISA plate; It contains no mature TGF-β; also called GARP-LAP complex
Protocol: For ELISA plates coated with GARP, a complex with either full-length latent TGF-β (including both the LAP and mature TGF-β regions) or a complex with recombinant LAP was allowed to form by the addition of the relevant recombinant protein. […] In contrast, an anti-LAP antibody was able to bind to the GARP-LAP complex.
An ELISA plate was coated with recombinant GARP (1 μg/mL O/N 4° C.), blocked with blocking agent (casein-PBS), and LAP (5 μg/mL) was captured on the coated recombinant GARP. LAP binding was detected with anti-LAP-HRP.

T1 sequence (Q14392 20-627 limits assumed, chain 1 of 3): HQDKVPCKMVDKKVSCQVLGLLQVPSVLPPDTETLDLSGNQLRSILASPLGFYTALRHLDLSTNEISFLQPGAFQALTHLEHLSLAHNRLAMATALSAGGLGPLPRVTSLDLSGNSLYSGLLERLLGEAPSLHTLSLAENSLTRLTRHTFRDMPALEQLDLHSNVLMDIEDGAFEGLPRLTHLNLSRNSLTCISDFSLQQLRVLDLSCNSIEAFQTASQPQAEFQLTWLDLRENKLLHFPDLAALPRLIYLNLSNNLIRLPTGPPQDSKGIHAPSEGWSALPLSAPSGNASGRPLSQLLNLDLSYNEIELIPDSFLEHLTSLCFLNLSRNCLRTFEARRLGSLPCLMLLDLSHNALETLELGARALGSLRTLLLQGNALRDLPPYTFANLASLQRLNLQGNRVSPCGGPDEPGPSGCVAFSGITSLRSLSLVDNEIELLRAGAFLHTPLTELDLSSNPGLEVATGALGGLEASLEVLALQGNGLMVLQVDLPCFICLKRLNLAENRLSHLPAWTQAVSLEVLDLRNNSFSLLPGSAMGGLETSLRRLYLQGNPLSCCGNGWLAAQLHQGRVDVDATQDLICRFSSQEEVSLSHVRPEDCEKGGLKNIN
T1 sequence (P01137 30-278 limits assumed, chain 2 of 3): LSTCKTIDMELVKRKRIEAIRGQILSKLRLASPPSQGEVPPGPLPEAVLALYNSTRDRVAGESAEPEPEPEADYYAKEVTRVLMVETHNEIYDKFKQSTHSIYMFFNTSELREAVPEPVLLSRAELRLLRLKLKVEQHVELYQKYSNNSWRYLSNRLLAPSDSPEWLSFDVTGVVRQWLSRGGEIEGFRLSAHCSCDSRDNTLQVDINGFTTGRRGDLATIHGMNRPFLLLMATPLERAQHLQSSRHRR
T1 sequence (P01137 279-390 limits assumed, chain 3 of 3): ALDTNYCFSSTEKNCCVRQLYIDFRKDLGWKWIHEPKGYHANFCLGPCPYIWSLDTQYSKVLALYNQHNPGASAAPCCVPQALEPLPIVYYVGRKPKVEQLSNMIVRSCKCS
T2 sequence (Q14392 20-627 limits assumed, chain 1 of 2): as the sequence (Q14392 20-627 limits assumed, chain 1 of 3) above
T2 sequence (P01137 30-278 limits assumed, chain 2 of 2): as the sequence (P01137 30-278 limits assumed, chain 2 of 3) above

Binder	Fold-difference (KD vs 39B6-A) [1] [fold]	Kd [1] [nM]	Activity on Biacore (%) [2] [%]	Activity on Biacore (%) [3] [%]	Activity on Biacore (%) [4] [%]	Activity on Biacore (%) [5] [%]	Activity on Biacore (%) [6] [%]	Fold-difference (KD vs 39B6-A) [7] [fold]	Kd [7] [nM]	Activity on Biacore (%) [8] [%]	Fold-difference (KD vs LHG10.6) [9] [fold]	Kd [9]	Fold-difference (KD vs LHG10.6) [10] [fold]	Kd [10] [nM]	koff [11] [s⁻¹]	Kd [12] [nM]	fold difference (KD vs 17H5) [12] [fold]	binding result [13]
B1	0.9	0.88	77.8	101	62.4	101	130	1.5	2.02	130	–	–	–	–	–	–	–	–
B2	–	–	–	–	–	–	–	–	–	–	1	0.534 nM	1	0.819	–	–	–	–
B3	–	–	–	–	–	–	–	–	–	–	–	–	–	–	0.000201	–	–	–
B4	0.5	0.517	–	–	–	–	–	–	–	–	–	–	–	–	–	0.1	1	–
B5	–	–	–	–	–	–	–	–	–	–	–	1.23 nM and 1.02 nM	–	–	–	–	–	–
B6	0.9	0.894	68	99	31.3	96.9	99.5	1	1.29	99.5	–	–	–	–	–	–	–	–
B7	0.8	0.763	96.1	96.7	104	104	93.5	1.2	1.62	93.5	–	–	–	–	–	–	–	no binding
B8	0.9	0.884	85.4	129	46.3	85.4	101	1.5	1.94	101	–	–	–	–	–	–	–	–
